{"source": "patent US6852686B2", "about": "“Methods for ameliorating icthyosiform skin diseases” (The United States of America as represented by the …, priority 1999, dated 2005)", "molecules": {"B1": {"name": "Involucrin: recombinant purified human involucrin expressed in E. coli (protein)", "chain": "MSQQHTLPVTLSPALSQELLKTVPPPVNTHQEQMKQPTPLPPPCQKVPVELPVEVPSKQEEKHMTAVKGLPEQECEQQQKEPQEQELQQQHWEQHEEYQKAENPEQQLKQEKTQRDQQLNKQLEEEKKLLDQQLDQELVKRDEQLGMKKEQLLELPEQQEGHLKHLEQQEGQLKHPEQQEGQLELPEQQEGQLELPEQQEGQLELPEQQEGQLELPEQQEGQLELPEQQEGQLELPQQQEGQLELSEQQEGQLELSEQQEGQLKHLEHQEGQLEVPEEQMGQLKYLEQQEGQLKHLDQQEKQPELPEQQMGQLKHLEQQEGQPKHLEQQEGQLEQLEEQEGQLKHLEQQEGQLEHLEHQEGQLGLPEQQVLQLKQLEKQQGQPKHLEEEEGQLKHLVQQEGQLKHLVQQEGQLEQQERQVEHLEQQVGQLKHLEEQEGQLKHLEQQQGQLEVPEQQVGQPKNLEQEEKQLELPEQQEGQVKHLEKQEAQLELPEQQVGQPKHLEQQEKHLEHPEQQDGQLKHLEQQEGQLKDLEQQKGQLEQPVFAPAPGQVQDIQPALPTKGEVLLPVEHQQQKQEVQWPPKHK"}, "B2": {"name": "TGase 1: recombinant full-length human transglutaminase 1 expressed in Sf9 cells by baculovirus, solubilized or bound to SLV (protein)", "chain": "MMDGPRSDVGRWGGNPLQPPTTPSPEPEPEPDGRSRRGGGRSFWARCCGCCSCRNAADDDWGPEPSDSRGRGSSSGTRRPGSRGSDSRRPVSRGSGVNAAGDGTIREGMLVVNGVDLLSSRSDQNRREHHTDEYEYDELIVRRGQPFHMLLLLSRTYESSDRITLELLIGNNPEVGKGTHVIIPVGKGGSGGWKAQVVKASGQNLNLRVHTSPNAIIGKFQFTVRTQSDAGEFQLPFDPRNEIYILFNPWCPEDIVYVDHEDWRQEYVLNESGRIYYGTEAQIGERTWNYGQFDHGVLDACLYILDRRGMPYGGRGDPVNVSRVISAMVNSLDDNGVLIGNWSGDYSRGTNPSAWVGSVEILLSYLRTGYSVPYGQCWVFAGVTTTVLRCLGLATRTVTNFNSAHDTDTSLTMDIYFDENMKPLEHLNHDSVWNFHVWNDCWMKRPDLPSGFDGWQVVDATPQETSSGIFCCGPCSVESIKNGLVYMKYDTPFIFAEVNSDKVYWQRQDDGSFKIVYVEEKAIGTLIVTKAISSNMREDITYLYKHPEGSDAERKAVETAAAHGSKPNVYANRGSAEDVAMQVEAQDAVMGQDLMVSVMLINHSSSRRTVKLHLYLSVTFYTGVSGTIFKETKKEVELAPGASDRVTMPVAYKEYRPHLVDQGAMLLNVSGHVKESGQVLAKQHTFRLRTPDLSLTLLGAAVVGQECEVQIVFKNPLPVTLTNVVFRLEGSGLQRPKILNVGDIGGNETVTLRQSFVPVRPGPRQLIASLDSPQLSQVHGVIQVDVAPAPGDGGFFSDAGGDSHLGETIPMASRGGA"}}, "key": {"TGase 1 [1]": {"biological_target": "T1, TGase 1 (Homo sapiens, UniProt P22735)", "T1 construct": "Recombinant full-length human TGase 1 and TGase 3 enzymes were expressed in Sf9 cells by the BaculoGold system; made in house; host or cells: Sf9 insect cells, BaculoGold baculovirus system, pVL1392 vector", "T1 sequence (P22735 1-817)": "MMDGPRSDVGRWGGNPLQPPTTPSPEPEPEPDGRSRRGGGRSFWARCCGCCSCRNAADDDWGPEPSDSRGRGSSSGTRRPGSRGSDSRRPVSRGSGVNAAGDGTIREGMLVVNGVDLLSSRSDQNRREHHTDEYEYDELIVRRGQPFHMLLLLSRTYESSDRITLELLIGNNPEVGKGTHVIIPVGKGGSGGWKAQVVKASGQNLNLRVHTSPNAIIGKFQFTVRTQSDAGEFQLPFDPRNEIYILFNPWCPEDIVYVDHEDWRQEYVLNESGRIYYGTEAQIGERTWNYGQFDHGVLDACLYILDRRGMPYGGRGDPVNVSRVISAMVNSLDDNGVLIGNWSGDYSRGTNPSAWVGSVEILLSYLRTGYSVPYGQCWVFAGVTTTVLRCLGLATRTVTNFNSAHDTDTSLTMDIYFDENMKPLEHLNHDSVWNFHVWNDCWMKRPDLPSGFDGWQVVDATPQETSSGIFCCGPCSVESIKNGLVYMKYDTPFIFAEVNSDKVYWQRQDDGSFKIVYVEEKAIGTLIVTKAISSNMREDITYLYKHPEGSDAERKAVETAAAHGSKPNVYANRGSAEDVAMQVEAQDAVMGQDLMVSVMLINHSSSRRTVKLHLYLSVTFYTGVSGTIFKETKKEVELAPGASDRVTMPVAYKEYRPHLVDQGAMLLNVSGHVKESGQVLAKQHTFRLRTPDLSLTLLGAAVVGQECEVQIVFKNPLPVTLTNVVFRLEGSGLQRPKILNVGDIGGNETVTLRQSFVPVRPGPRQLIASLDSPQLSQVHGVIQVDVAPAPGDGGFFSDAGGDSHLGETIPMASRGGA", "experiment": "Kinetic parameters of 14C-putrescine incorporation by TGase 1", "assay_type": "biochemical", "details": "for Km: KM pertains to the protein substrate, read-out: KM(app); for Vmax / kcat(putrescine): putrescine incorporation, 37° C.", "excerpt": "One possibility is that this KM increase is due to the reduced diffusional mobility of the enzyme after attachment to the SLV. […] (Table 1). One reason for this is that a reduced access to many of the Gln residues occurs after anchorage of the enzyme. On the other hand, the Vmax value for the recombinant SPR2 substrate was almost unchanged.\nThe reaction rates were quantified by measuring the incorporated radioactivity as before (Thomas, M. V., Cellular Calcium, McCormack, et al., eds., pp. 115-123 (1991), herein expressly incorporated by reference in its entirety). Kinetic constants were obtained using the curve-fitting and regression analysis Sigmaplot 4.0 software. All data points represent the means of three measurements, each performed in triplicate."}, "[2]": {"system": "synthetic lipid vesicles (SLV)", "experiment": "Membrane association (binding) to synthetic lipid vesicles, SLV pelleted by ultracentrifugation", "experimental": "Mixtures of dipalmitoyl-phosphatidylcholine, cholesterol, dipalmitoyl-phosphatidylserine (PS) and other lipids where indicated (all from Sigma, St. Louis, Mo.) were made in chloroform-methanol (95:5). In all cases, the mixtures contained 30% cholesterol. When the amounts of PS or other individual components were varied, phosphatidylcholine was added to make the mixture to 100%. Mixtures were made in 0.5 ml and contained 10 μmol of total lipids. The solvent was flushed away under a stream of N2, dried further under high vacuum for 4 h and then resuspended by vortexing in 0.5 ml of a buffer containing 50 mM Tris-Cl (pH 8.0), 100 mM NaCl, 3 mM NaN3, 5 mM DTT, and 200 mM sucrose. The mixture was sonicated on ice five times each for 1 min using a Branson 250 sonifier with micro probe tip, and allowed to stand at 23° C. to facilitate assembly of SLV. After 1 h the SLV were diluted with 0.5 ml of the above buffer without sucrose, and 200 μl aliquots were centrifuged at 100,000× g for 30 min in a Beckman Airfuge using the A-10 rotor. The top 175 μl was removed, and the pellet resuspended in another 150 μl of sucrose-free buffer. The final stock concentration was 11 μmol/ml.\nIn all cases, the buffer contained 50 mM Tris-HCl (pH 8.0), 100 mM NaCl, 1 mM DTT, 3 mM NaN3, and other additives where noted. Some mixtures also contained 1 mM CaCl2 or 2 mM EDTA. After mixing, the samples were centrifuged for 45 min at 100,000× g, and the protein content from 50 μl of supernatant was determined by amino acid analysis after acid hydrolysis. Data were usually not corrected for loss of SLV lipids, as in control experiments, cumulated losses were <4% as assayed by ^14C-phosphatidylcholine tracer, and thus neglected from the calculations.\n(§1) The Ca^++ concentrations in the μM range were set by buffering free Ca^++ with chelators The desired Ca^++/chelator ratios were calculated by the WinMaxC 1.7 computer program (Bers, et al., Methods in Cell Biology Vol 40: A Practical Guide to the Study of Ca^2+ in Living Cells, Nuccitelli, R., ed., pp. 1-327 (1994), herein expressly incorporated by reference in its entirety), and were made by adding the required amounts of 1 M CaCl2 to 0.2 M stock solutions of the following chelators at pH 8.0. Final chelator concentrations in the samples were 10 mM in all cases. Sodium citrate was the chelator for the 20-500 μM Ca^++ range; sodium nitrilotriacetate for the 1-20 μM Ca^++ range; and sodium 1,2-bis(aminophenoxy)ethane-N,N,N′,N′ tetraacetate for the 0.1-1 μM Ca^++ range."}, "TGase 1 [3]": {"biological_target": "T1, TGase 1", "experiment": "14C-putrescine labeling of involucrin Gln residues by TGase 1", "assay_type": "biochemical", "experimental": "This was set far below saturating amounts on SLV in order to ensure that all enzyme was bound to the SLV.\nAfter 4 h incubation at 37° C., the reactions were stopped by addition of EDTA to 10 mM and 100 μl 20% SDS, and vortexed. This mixture was precipitated and washed three times with acetone-triethylamine-acetic acid (90:5:5) (Konigsberg, W. H. and L. Henderson, Meth. Enzymol., 91: […] (1983), herein expressly incorporated by reference in its entirety) to remove the SDS and the lipids. After repeated washings with acetone, the pellet was redissolved in a buffer of 50 mM Tris-Cl (pH 7.5), and digested for 16 h at 37° C. with 2% (by weight) of modified trypsin (Boehringer Mannheim, Indianapolis, Ind.). Aliquots of 20 μg were resolved on a 250×4.6 mm Beckman Ultrasphere C18 HPLC column. Separated peaks were analyzed for radioactivity and peaks containing activity were attached to a solid support for sequencing as before (Steinert, P. M. and L. N. Marekov, J. Biol. Chem., 270: 17702-17711 (1995), herein expressly incorporated by reference in its entirety). As the peptide number 40 eluted by 50% acetonitrile (see FIG. 9) was too long for direct sequencing, it was subjected to limited proteolysis by dispase and was sequenced from four peptides isolated by HPLC chromatography as above. […]"}, "TGase 1 [4]": {"biological_target": "T1, TGase 1", "experiment": "Free Ca++ dependence of 14C-putrescine incorporation by TGase 1", "assay_type": "biochemical", "experimental": "Activity values are given as percent of the values measured at 1 mM Ca^++. […] Points represent the means±s.d. of three independent measurements.\nThe optimal Ca^++ ion concentration required for the TGase 1 reaction has not been measured for any substrate. Standard in vitro solution assays contain 1-5 mM Ca^++. (Folk, J. E. and J. S. Finlayson, Adv. Protein Chem., 31: 1-133 (1977); Folk, J. E., Adv. Enzymol. Related Areas Mol. Biol., 54: 1-56 (1983); and Lorand, L. S. M. Conrad, Mol. Cell Biochem., 58: 9-35 (1984)). […] (FIG. 6, open symbols). […] (FIG. 2).\nas §1"}, "[5]": {"details": "SLV containing 15% PS compared to solubilized TGase 1 and soluble involucrin"}}, "note": "Read-outs that look alike come from different tables or passages of the source."}
{"molecule": "B1", "values": [{"measurement": "decrease of KM", "setting": "TGase 1 [1]; [5]", "result": "approximately 40 fold"}, {"measurement": "decrease of kcat value", "setting": "TGase 1 [1]; [5]", "result": 200, "unit": "fold"}, {"measurement": "kinetic parameters as a substrate", "setting": "TGase 1 [1]; SLV formulated in the absence of PS", "result": "immeasurably low"}, {"measurement": "Km", "setting": "TGase 1 [1]; SLV-bound TGase 1 (15% PS)", "result": "2.9 ± 0.4", "unit": "µM"}, {"measurement": "Vmax", "setting": "TGase 1 [1]; SLV-bound TGase 1 (15% PS)", "result": "2.4 ± 0.4", "unit": "pmol/min"}, {"measurement": "kcat(putrescine)", "setting": "TGase 1 [1]; SLV-bound TGase 1 (15% PS)", "result": 0.0425, "unit": "s⁻¹"}, {"measurement": "Vmax", "setting": "TGase 1 [1]; Solubilized TGase 1, 0.94 pmol", "result": "482 ± 37", "unit": "pmol/min"}, {"measurement": "kcat(putrescine)", "setting": "TGase 1 [1]; Solubilized TGase 1, 0.94 pmol", "result": 8.55, "unit": "s⁻¹"}, {"measurement": "Km", "setting": "TGase 1 [1]; Solubilized TGase 1", "result": "114 ± 19", "unit": "µM"}, {"measurement": "Ca++ concentration above which binding to SLV occurs", "setting": "[2]; SLV containing 12-18% phosphatidylserine", "result": "above 1 μM"}, {"measurement": "amount saturating SLV", "setting": "[2]; SLVs containing 15-30% PS", "result": "0.43±0.02 nmol involucrin/μmol lipid"}, {"measurement": "free Ca++ concentration at which binding to SLVs was first detected", "setting": "[2]; SLVs containing 15 mol % PS", "result": "1 :M"}, {"measurement": "free Ca++ concentration for maximal binding to SLVs", "setting": "[2]; SLVs containing 15 mol % PS, saturating involucrin", "result": "> 20", "unit": "µM"}, {"measurement": "putrescine incorporated", "setting": "TGase 1 [3]; membrane-bound TGase 1 (Sf9 particulate membranes or SLV with 15% PS)", "result": "approximately 1 mol of putrescine/mol of invol"}, {"measurement": "putrescine incorporated", "setting": "TGase 1 [3]; solubilized recombinant TGase 1, no membranes or SLV, 20 mM putrescine, 4 h, 37° C.", "result": "about 20 mol of putrescine incorporated/mol of involucrin"}]}
{"molecule": "B2", "values": [{"measurement": "Ca++ concentration above which enzyme becomes active in cross-linking", "setting": "TGase 1 [4]; TGase 1 bound to SLV", "result": "above 10 μM"}, {"measurement": "lowering of Ca++ concentration required for cross-linking of involucrin versus soluble enzyme and substrate", "setting": "TGase 1 [4]; membrane-bound versus soluble TGase 1", "result": 10, "unit": "fold"}, {"measurement": "Ca++ concentration above which enzyme becomes active in cross-linking", "setting": "TGase 1 [4]; solution assays", "result": "above 100 μM"}, {"measurement": "saturating amount on SLV", "setting": "[2]; SLV composed of 15% PS", "result": "approximately 0.9 nmol of TGase 1/μmol of lipid"}, {"measurement": "binding to SLVs", "setting": "[2]; TGase 1 purified by the NH2OH—HCl method (S-acyl adducts hydrolysed)", "result": "unable to bind to SLVs"}, {"measurement": "binding to SLVs", "setting": "[2]; TGase 1 purified from Triton X-100 extracts (lipid adducts retained)", "result": "spontaneously associates with SLVs"}]}
